Data reported in PMC6943437, “Coupling the Antimalarial Cell Penetrating Peptide TP10 to Classical Antimalarial Drugs Primaquine and Chloroquine Produces Strongly Hemolytic Conjugates” (Molecules, 2019).

Assays:
Format in all cases: cell-based
[1] = system: P. falciparum 3D7; details: P. falciparum 3D7 (CQ-sensitive), 48 h; read-out: IC50 ± SD (n = 3)
Experimental: These second-generation conjugates (synthesis routes depicted in Scheme 2; Scheme 3) were evaluated in vitro, alongside the commercial reference drug, CQ (1), their parent building blocks, TP10 and Cq (4), and first-generation conjugate 5a, regarding their ability to inhibit growth of blood-stage parasites of the CQ-sensitive P. falciparum 3D7 strain (Table 3). The primaquine analogues of Cq conjugates 5a and 14, respectively, PQ-C4-TP10 (3a) and TP10-S-S-PQ (Figure 2, 14′), were also included for comparison; the synthesis of these conjugates, 3a and 14′, has been reported elsewhere. Of note, substantial hemolysis was detected upon erythrocyte exposure to some of the test conjugates, particularly at the higher concentrations tested. In view of this, emolysis assays were also conducted on cultures of both hRBC and PiRBC (Table 3).
P. falciparum 3D7 strain (chloroquine and mefloquine susceptible) was continuously cultured as previously described. Parasitemia was monitored daily by microscopic examination of Giemsa (MERCK, Sigma-Aldrich) stained thin blood smears.
Synchronized ring-stage P. falciparum (3% hematocrit, 1% parasitemia) were incubated in a microtiter plate for 48 h in the presence of two-fold serial dilutions of TP10 and derived conjugates 11–15, in the 10–10000 nM concentration range. Cultures incubated with three-fold serial dilutions of chloroquine bisphosphate, and also of its analogue 4, in the 0.1–8000 nM concentration range, were included for comparison. Culture without test compounds was also added to the microtiter plate, as negative control. After incubation, 100 μL of a solution of SYBR Green (Thermo Fisher; SG; 0.001% v/v in PBS) was added to each well and plates incubated for another 60 min under standard culture conditions. Plates were then centrifuged at 2500 rpm for 2 min, the supernatant was discarded, and cells were re-suspended in 100 μL of PBS. Fluorescence was collected in a multi-mode microplate reader (Triad, Dynex Technologies) with excitation at 485 nm and emission at 535 nm. Fluorescence values were normalized (to take into account the normal growth of the parasite) and then plotted against logC. IC50 were determined using GraphPad Prism 6.

[2] = In vitro hemolytic activity on healthy erythrocytes; details: healthy erythrocytes (hRBC); 10 µM, 1 h, hRBC only; dash with footnote c = hemolysis not detected; read-out: % hemolysis at 10 µM ± SD (n = 3), hRBC
Experimental: (§1) For positive and negative controls, 1% Triton X-100 and PBS were added, respectively. After this period, the plates were centrifuged and supernatants transferred to another plate. Supernatant absorbance at 450 nm was assessed in a multi-mode microplate reader (Triad, Dynex Technologies, Chantilly, VA, USA) and values were treated using the following equation (1):(1) % Hemolysis=Abs−Abs(negative control)/Abs(positive control)−Abs(negative control)

[3] = In vitro hemolytic activity on Plasmodium-infected erythrocyte cultures; details: cultures with 3% PiRBC, dash with footnote c = hemolysis not detected, read-out: % hemolysis at 10 µM ± SD (n = 3), PiRBC
Experimental: as §1

CC[C@H](C)[C@H](NC(=O)[C@H](CCCCN)NC(=O)[C@H](CCCCN)NC(=O)[C@H](C)NC(=O)[C@H](CC(C)C)NC(=O)[C@H](C)NC(=O)[C@H](C)NC(=O)[C@H](CC(C)C)NC(=O)[C@H](C)NC(=O)[C@H](CCCCN)NC(=O)[C@H](CC(C)C)NC(=O)[C@H](CC(N)=O)NC(=O)[C@@H](NC(=O)[C@H](CCCCN)NC(=O)CNC(=O)[C@H](CC(C)C)NC(=O)[C@H](CC(C)C)NC(=O)[C@H](Cc1ccc(O)cc1)NC(=O)CNC(=O)[C@H](C)N)[C@@H](C)CC)C(=O)N[C@@H](CC(C)C)C(=O)N[C@@H](CSSC[C@H](N)C(=O)NCCCCNc1ccnc2cc(Cl)ccc12)C(N)=O [compound 14]
IC50 [1]: 2300 ± 400 nM | hemolysis at 1 h, 10 µM [2]: 18.2 ± 0.8% | hemolysis at 1 h, 10 µM [3]: 7 ± 1%

CC[C@H](C)[C@H](NC(=O)[C@H](CCCCN)NC(=O)[C@H](CCCCN)NC(=O)[C@H](C)NC(=O)[C@H](CC(C)C)NC(=O)[C@H](C)NC(=O)[C@H](C)NC(=O)[C@H](CC(C)C)NC(=O)[C@H](C)NC(=O)[C@H](CCCCN)NC(=O)[C@H](CC(C)C)NC(=O)[C@H](CC(N)=O)NC(=O)[C@@H](NC(=O)[C@H](CCCCN)NC(=O)CNC(=O)[C@H](CC(C)C)NC(=O)[C@H](CC(C)C)NC(=O)[C@H](Cc1ccc(O)cc1)NC(=O)CNC(=O)[C@H](C)NC(=O)CCC(=O)NCCCC(C)Nc1cc(OC)cc2cccnc12)[C@@H](C)CC)C(=O)N[C@@H](CC(C)C)C(N)=O (some centres unmarked) [3a]
hemolysis at 1 h, 10 µM [2]: 89 ± 8% | hemolysis at 1 h, 10 µM [3]: 49 ± 7%

CC[C@H](C)[C@H](NC(=O)[C@H](CCCCN)NC(=O)[C@H](CCCCN)NC(=O)[C@H](C)NC(=O)[C@H](CC(C)C)NC(=O)[C@H](C)NC(=O)[C@H](C)NC(=O)[C@H](CC(C)C)NC(=O)[C@H](C)NC(=O)[C@H](CCCCN)NC(=O)[C@H](CC(C)C)NC(=O)[C@H](CC(N)=O)NC(=O)[C@@H](NC(=O)[C@H](CCCCN)NC(=O)CNC(=O)[C@H](CC(C)C)NC(=O)[C@H](CC(C)C)NC(=O)[C@H](Cc1ccc(O)cc1)NC(=O)CNC(=O)[C@H](C)NC(=O)[C@@H](N)CSSC[C@H](N)C(=O)NCCCCNc1ccnc2cc(Cl)ccc12)[C@@H](C)CC)C(=O)N[C@@H](CC(C)C)C(N)=O [compound 12]
IC50 [1]: 1000 ± 300 nM | hemolysis at 1 h, 10 µM [2]: 8.5 ± 0.5% | hemolysis at 1 h, 10 µM [3]: 2 ± 0.3%

CC[C@H](C)[C@H](NC(=O)[C@H](CCCCN)NC(=O)[C@H](CCCCN)NC(=O)[C@H](C)NC(=O)[C@H](CC(C)C)NC(=O)[C@H](C)NC(=O)[C@H](C)NC(=O)[C@H](CC(C)C)NC(=O)[C@H](C)NC(=O)[C@H](CCCCN)NC(=O)[C@H](CC(C)C)NC(=O)[C@H](CC(N)=O)NC(=O)[C@@H](NC(=O)[C@H](CCCCN)NC(=O)CNC(=O)[C@H](CC(C)C)NC(=O)[C@H](CC(C)C)NC(=O)[C@H](Cc1ccc(O)cc1)NC(=O)CNC(=O)[C@H](C)NC(=O)[C@@H](N)Cc1cn(CCCCCC(=O)NCCCCNc2ccnc3cc(Cl)ccc23)nn1)[C@@H](C)CC)C(=O)N[C@@H](CC(C)C)C(N)=O [compound 11]
IC50 [1]: 1200 ± 200 nM | hemolysis at 1 h, 10 µM [2]: 23 ± 1% | hemolysis at 1 h, 10 µM [3]: 10.7 ± 0.1%

CC[C@H](C)[C@H](NC(=O)[C@H](CCCCN)NC(=O)[C@H](CCCCN)NC(=O)[C@H](C)NC(=O)[C@H](CC(C)C)NC(=O)[C@H](C)NC(=O)[C@H](C)NC(=O)[C@H](CC(C)C)NC(=O)[C@H](C)NC(=O)[C@H](CCCCN)NC(=O)[C@H](CC(C)C)NC(=O)[C@H](CC(N)=O)NC(=O)[C@@H](NC(=O)[C@H](CCCCN)NC(=O)CNC(=O)[C@H](CC(C)C)NC(=O)[C@H](CC(C)C)NC(=O)[C@H](Cc1ccc(O)cc1)NC(=O)CNC(=O)[C@H](C)NC(=O)CCC(=O)NCCCCNc1ccnc2cc(Cl)ccc12)[C@@H](C)CC)C(=O)N[C@@H](CC(C)C)C(N)=O [5a]
IC50 [1]: 800 ± 100 nM | hemolysis at 1 h, 10 µM [2]: 23 ± 1% | hemolysis at 1 h, 10 µM [3]: 6.5 ± 0.4%
